From the Human Domainome abundance scans (Beltran et al. 2025) come the findings set out here.

± gives the uncertainty stated by the source.

The data set can be described thus: abundance fitness (aPCA) (normalised: wild type 0, dead -1); higher = more abundant; growth selection in yeast, the domain comes from the species named. Particulars: Homo sapiens.
Substance “E3 ubiquitin-protein ligase NEDD4-like Y210R, Q96PU5” gave an abundance fitness of -0.299 ± 0.063.
Under “E3 ubiquitin-protein ligase NEDD4-like Y210S, Q96PU5” stands -0.359 ± 0.071; under “E3 ubiquitin-protein ligase NEDD4-like Y210T, Q96PU5”, -0.159 ± 0.072.
Under “E3 ubiquitin-protein ligase NEDD4-like Y210V, Q96PU5” stands -0.356 ± 0.069; under “E3 ubiquitin-protein ligase NEDD4-like Y210W, Q96PU5”, -0.287 ± 0.08.
Under “E3 ubiquitin-protein ligase NEDD4-like Y211C, Q96PU5” stands -0.696 ± 0.08.
Take “E3 ubiquitin-protein ligase NEDD4-like Y211D, Q96PU5”: the abundance fitness was -0.486 ± 0.065.
“E3 ubiquitin-protein ligase NEDD4-like Y211E, Q96PU5”: the abundance fitness is -0.643 ± 0.058.
To “E3 ubiquitin-protein ligase NEDD4-like Y211G, Q96PU5” belongs -0.749 ± 0.058; to “E3 ubiquitin-protein ligase NEDD4-like Y211H, Q96PU5”, -0.77 ± 0.12; to “E3 ubiquitin-protein ligase NEDD4-like Y211I, Q96PU5”, -0.601 ± 0.065.
For “E3 ubiquitin-protein ligase NEDD4-like Y211K, Q96PU5”, the abundance fitness was -0.691 ± 0.097.
To “E3 ubiquitin-protein ligase NEDD4-like Y211M, Q96PU5” belongs -0.779 ± 0.11.
To “E3 ubiquitin-protein ligase NEDD4-like Y211N, Q96PU5” belongs -0.704 ± 0.16.
Under “E3 ubiquitin-protein ligase NEDD4-like Y211P, Q96PU5” stands -0.548 ± 0.087; under “E3 ubiquitin-protein ligase NEDD4-like Y211Q, Q96PU5”, -0.704 ± 0.085; under “E3 ubiquitin-protein ligase NEDD4-like Y211R, Q96PU5”, -0.728 ± 0.052.
On to “E3 ubiquitin-protein ligase NEDD4-like Y211S, Q96PU5”, for which the abundance fitness is -0.715 ± 0.055.
With “E3 ubiquitin-protein ligase NEDD4-like Y211T, Q96PU5”, the abundance fitness was -0.608 ± 0.064.
To “E3 ubiquitin-protein ligase NEDD4-like Y211V, Q96PU5” belongs -0.736 ± 0.06; to “E3 ubiquitin-protein ligase NEDD4-like Y211W, Q96PU5”, -0.244 ± 0.078.
